Measurements taken from the supplement of paper PMC10567573.

B1: OR10K2 (parent)
chain: SLARLQQLLFVIFLLLYLFTLGTN
B2: ANKRD40 (parent)
chain: SLRENDFIEIELDRQELTYQELLR

Variants of: B1
Assay: protein stability index of a GFP-peptide fusion (GPS, HEK-293T) (PSI 1-6); higher = more stable
Conditions: c terminus: a fixed tail appended
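Note: lentivirally expressed fusions sorted by FACS into six bins by GFP to DsRed ratio, PSI derived from sequencing read proportions per bin multiplied by bin number.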

Protein stability index of substitutions, site by site:
R4: P 2.24 | K 2.19 | A 4.04 | W 2.28 | N 2.73 | M 3.67 | D 1.62 | H 2.36 | Y 2.57 | S 2.62 | F 2.36 | L 3.28 | I 3.36 | E 3.95
L21: Y 1.62 | T 3.5 | C 3.39 | I 2.08 | F 3.52 | N 4.16 | S 2.34 | V 2.08
Q6: E 3.01 | I 2.84 | D 3.29 | K 3.25 | G 2.56 | C 2.58 | Y 2.6 | N 2.84 | M 2.94 | H 2.35 | P 1.38 | V 2.45 | A 2.61 | W 2.2 | T 2.68 | S 2.43 | L 2.97 | F 2.72
Q7: I 1.99 | M 2.14 | F 1.79 | A 1.91 | S 2.11 | L 1.72 | N 3.21 | Y 1.66 | V 2.1 | G 3.23 | K 3.27 | P 1.9 | R 2.45 | T 1.74 | H 1.9 | C 2.1 | E 2.69 | W 1.58
L16: S 3.14 | I 2.15 | T 3.42 | Y 3.45 | E 3.61
L2: W 1.88 | N 3.77 | T 2.59 | A 3.88 | C 2.55 | Q 2.62 | F 2.52 | E 2.01 | M 2.45 | S 2.94 | G 1.4 | K 2.49 | R 2.48 | D 2.06 | I 3.49 | Y 2.34
L18: K 2.07 | M 2.1 | I 2.73 | S 2.25 | D 1.64 | G 2.29
G22: C 2.65 | N 3.78 | K 2.48 | W 2.11 | H 2.3
F13: H 2.96 | Y 3.74 | K 1.43 | Q 3.04 | W 3.36 | A 2.44 | G 1.73 | C 3.12
F19: M 2.17 | I 1.51 | L 2.05
T20: I 2.11 | L 1.5 | F 3.51 | R 2.2 | M 1.29 | Q 1.45 | N 3.75
L5: H 2.62 | G 3.76 | K 2.85 | W 3.37 | M 1.41 | C 3.1 | V 2.44 | R 1.85 | P 2.02 | N 2 | I 1.78 | A 3.68 | E 2.27 | D 3.05 | S 3.05 | T 2.28 | F 2.59
L8: N 2.24 | D 2.99 | C 3.24 | F 2.88 | I 2.4 | Y 3.36 | W 2.53 | M 3.83 | P 3.32 | V 2.17 | S 2.86 | R 3.34 | A 1.98 | K 3.04 | E 1.9 | G 2.92 | T 1.97
L9: P 3.06 | K 3.92 | C 3.51 | W 2.84 | I 2.15
N24: F 2.87 | L 3.23 | T 2.4 | W 1.99 | I 2.75 | A 2.11
A3: L 2.75 | M 1.88 | E 1.91 | K 1.51 | F 1.86 | W 2.23 | R 1.76 | G 1.49 | N 3.31 | Q 3.09 | T 1.91 | H 3.07
T23: R 1.53 | D 1.44 | S 1.86 | C 4.22 | H 1.75
I12: L 2.29 | P 3.58 | E 1.78 | H 2.02 | K 3.69
Y17: L 2.34 | C 2.72 | I 3.43 | W 2.13 | F 1.68 | V 1.57
F10: I 4.24 | Q 2.22 | V 2.29 | N 2.18 | G 3.07 | T 3.08 | R 3.34 | Y 2.37
L15: T 2.62 | V 1.48 | Q 2.4
S1: G 2.86 | L 3.72 | Q 2.21 | V 2.31 | D 1.54 | A 2.7 | Y 3.24 | R 2.11 | T 2.85 | M 3.25 | K 2.87 | H 2.88 | F 1.35 | W 1.59 | C 2.44 | N 2.38 | P 2.46 | I 2.21 | E 2.11
L14: F 2.64 | H 2.31 | I 2.72 | G 2.6
V11: T 3.08 | M 3.05 | S 1.85 | H 2.61 | F 2.58 | A 1.59 | P 2.94 | Y 2.3

Variants of: B2
Assay: as above
Conditions: c terminus: a fixed tail appended

Protein stability index, by site and new letter:
E4: W 2.19 | R 2.31 | Q 2.97 | A 2.74 | T 2.7 | I 2.02 | K 2.16 | M 2.55 | N 2.92 | H 2.84 | Y 2.17 | C 2.16 | F 2.41 | S 3.21 | V 1.83 | G 2.57 | P 3.21 | L 2.05 | D 3.25
L2: D 3.6 | T 3 | K 3.01 | V 3.12 | S 3.2 | Q 3.48 | F 2.36 | P 3.49 | G 3.02 | Y 2.68 | M 3.09 | R 2.8 | I 2.66 | H 3.01 | C 2.99 | A 3.91 | E 2.93 | N 2.89 | W 2.73
S1: K 3.23 | R 3.07 | M 2.66 | W 2.26 | T 3.38 | Q 3.44 | D 3.12 | E 3.41 | I 2.34 | V 3.17 | A 2.82 | L 2.84 | P 3.26 | H 3.26 | G 2.77 | F 2.29 | Y 2.3 | C 3.07 | N 3.31
D6: F 2.12 | T 2.34 | Q 2.76 | A 2.42 | H 2.57 | I 1.28 | E 2.97 | C 2.28 | S 2.55 | P 2.97 | R 3.14 | G 2.82 | L 2.15 | M 1.66 | N 2.99 | K 2.64
N5: T 3.09 | W 1.72 | Q 2.96 | P 3.34 | C 2.48 | D 2.82 | V 2.4 | H 2.62 | Y 2.75 | F 2.2 | E 2.78 | A 2.57 | M 2.4 | S 2.77 | K 2.88 | G 3.03 | I 2.33 | R 2.79 | L 2.14
R3: L 2.29 | A 3.29 | P 3.52 | N 3.06 | G 3.26 | K 3.23 | W 2.26 | Q 2.95 | D 2.9 | H 3.08 | M 2.54 | E 2.85 | T 2.91 | V 2.44 | Y 2.65 | C 3.14 | S 3.54 | F 2.37 | I 2.9
